± gives the standard deviation of the averaged measurements.
The sequences below were run on ATP (assay: switch fluorescence ratio, 500 uM ATP over buffer (Cy3 cluster intensity, sum of 5 cycles each) (fold (ratio)); higher = stronger signal-on switching upon ATP binding; sequences stand for … in TCGTCGGCAGCGTCAGATGTGTATAAGAGACAGTTTTTTTTTTTTTTTTTTTTTTTTT…TC). Conditions: aptamer strand: ATP DNA aptamer (quencher-CACCTGGGGGAGTATTGCGGAGGAAGG + anchor), 100 nM annealed; ATP concentration: 500 uM.
Summary of the method: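 The fluorescence ratio divides summed target-cycle Cy3 intensity by summed buffer-cycle Cy3 intensity for each cluster and is averaged per switch-domain sequence. Cy3-labelled switching-strand clusters on a modified Illumina MiSeq flow-cell were annealed to 100 nM quencher-labelled ATP aptamer, then imaged in selection buffer and again after 15 min with 500 uM ATP at 22 °C. Five such cycles were run, with NaOH stripping and re-annealing between them, and clusters outside 100-1000 RFU were excluded.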
GACGGGGGCA showed a switch fluorescence ratio of 0.99948 ± 0.00073. In the case of GACGGGGGGT, the switch fluorescence ratio is reported as 1 ± 0.041. For GACGGGTATA, the switch fluorescence ratio was 1.36 ± 0.47. With GACGGTAACT the switch fluorescence ratio was 1.14 ± 0.059. Sequence GACGGTGGCT has a switch fluorescence ratio of 1.01 ± 0.023. GACGTAATTA gave a switch fluorescence ratio of 1.5 ± 0.045. GACGTATATG was tested, and the switch fluorescence ratio was 0.973 ± 0.048. Work on GACGTCAGGG yielded a switch fluorescence ratio of 0.997 ± 0.052. GACGTGGGGC was tested, and the switch fluorescence ratio was 1.131 ± 0.0064. With GACGTGGTAG the switch fluorescence ratio was 1.03 ± 0.016. For GACGTGTAGT, the switch fluorescence ratio was 1.02 ± 0.025. For GACGTTCTGT, the switch fluorescence ratio was 1.03 ± 0.063. GACGTTTTGT gave a switch fluorescence ratio of 0.96221 ± 0.00058. GACTAAAGGT showed a switch fluorescence ratio of 1.01 ± 0.013. With GACTAAAGTA the switch fluorescence ratio was 1.05 ± 0.074. GACTAAGACT was tested, and the switch fluorescence ratio was 1.01 ± 0.026. In the case of GACTACTAGC, the switch fluorescence ratio is reported as 1.05 ± 0.045. For GACTAGAGGG, the switch fluorescence ratio was 0.99 ± 0.034. GACTAGGGGT showed a switch fluorescence ratio of 1.005 ± 0.0078. Work on GACTCCAGGC yielded a switch fluorescence ratio of 1.22 ± 0.069. In the case of GACTCTGGGA, the switch fluorescence ratio is reported as 1.11 ± 0.027. Work on GACTCTTGCG yielded a switch fluorescence ratio of 0.964 ± 0.029. GACTGATACC showed a switch fluorescence ratio of 1.17 ± 0.035. GACTGCTGTG gave a switch fluorescence ratio of 1.012 ± 0.0085. GACTGGGGTT gave a switch fluorescence ratio of 0.9891 ± 0.0059. For GACTGGTAAT, the switch fluorescence ratio was 1.047 ± 0.0072. For GACTGTCGG, the switch fluorescence ratio was 1.002 ± 0.0068. GACTGTGGCA showed a switch fluorescence ratio of 1.013 ± 0.0021. GACTGTTAAG showed a switch fluorescence ratio of 1.02 ± 0.017. For GACTGTTACA, the switch fluorescence ratio was 1.2 ± 0.017. Sequence GACTGTTGTC has a switch fluorescence ratio of 0.9972 ± 0.0059. For GACTTAGCTT, the switch fluorescence ratio was 1.046 ± 0.0055. GACTTATGGG showed a switch fluorescence ratio of 1.04 ± 0.033. With GACTTATTAT the switch fluorescence ratio was 1.001 ± 0.0041. GACTTATTGG showed a switch fluorescence ratio of 1.02 ± 0.032. GACTTATTTA showed a switch fluorescence ratio of 1.01 ± 0.043. GACTTGCTGA gave a switch fluorescence ratio of 1 ± 0.049. With GACTTGGTGC the switch fluorescence ratio was 1.06 ± 0.023. With GACTTTGGGG the switch fluorescence ratio was 1 ± 0.013. GACTTTGTTC showed a switch fluorescence ratio of 0.983 ± 0.012. Work on GACTTTTATT yielded a switch fluorescence ratio of 0.989 ± 0.017. GACTTTTGTA was tested, and the switch fluorescence ratio was 0.9812 ± 0.0045. Sequence GACTTTTTGC has a switch fluorescence ratio of 0.933 ± 0.055. Sequence GACTTTTTTC has a switch fluorescence ratio of 0.9748 ± 0.0053. With GAGAAAATCG the switch fluorescence ratio was 1 ± 0.043. GAGAAAATGG was tested, and the switch fluorescence ratio was 1.003 ± 0.0039. In the case of GAGAAATGGG, the switch fluorescence ratio is reported as 1.07 ± 0.038. In the case of GAGAAATTCC, the switch fluorescence ratio is reported as 1.07 ± 0.021. GAGAACAGTG was tested, and the switch fluorescence ratio was 1.02 ± 0.041. Sequence GAGAACGAGG has a switch fluorescence ratio of 0.983 ± 0.023. GAGAAGAGGC gave a switch fluorescence ratio of 1.13 ± 0.023. Work on GAGAAGCGGT yielded a switch fluorescence ratio of 1.004 ± 0.008. Work on GAGAAGCTAT yielded a switch fluorescence ratio of 0.987 ± 0.015. GAGAAGGGCA was tested, and the switch fluorescence ratio was 1.02 ± 0.05. GAGAAGTTAG was tested, and the switch fluorescence ratio was 1.02 ± 0.023. GAGAAGTTGA was tested, and the switch fluorescence ratio was 1 ± 0.02. With GAGAATTAGG the switch fluorescence ratio was 0.964 ± 0.039. GAGACATTAC gave a switch fluorescence ratio of 1.61 ± 0.04. Work on GAGACCAATC yielded a switch fluorescence ratio of 1.023 ± 0.008. GAGACCCTAT showed a switch fluorescence ratio of 1.029 ± 0.0074. With GAGACGACCA the switch fluorescence ratio was 1.15 ± 0.029. In the case of GAGACGCTTA, the switch fluorescence ratio is reported as 1.069 ± 0.0064. GAGACGTTTT gave a switch fluorescence ratio of 0.97 ± 0.015. GAGAGAGGGA was tested, and the switch fluorescence ratio was 1.01 ± 0.034. GAGAGATCG gave a switch fluorescence ratio of 0.982 ± 0.021. In the case of GAGAGATTAT, the switch fluorescence ratio is reported as 0.9787 ± 0.002. With GAGAGCCGTC the switch fluorescence ratio was 1.08 ± 0.13. GAGAGCGAGT was tested, and the switch fluorescence ratio was 1.03 ± 0.036. With GAGAGCTATA the switch fluorescence ratio was 1.07 ± 0.044. GAGAGCTCAC showed a switch fluorescence ratio of 1.01 ± 0.021. GAGAGGACAT gave a switch fluorescence ratio of 0.996 ± 0.011. For GAGAGGGAAG, the switch fluorescence ratio was 1.004 ± 0.0077. Sequence GAGAGGGCAG has a switch fluorescence ratio of 0.9869 ± 0.0072. GAGAGGGCCT showed a switch fluorescence ratio of 0.985 ± 0.038. GAGAGGTTCG showed a switch fluorescence ratio of 0.962 ± 0.012. GAGAGGTTTG gave a switch fluorescence ratio of 0.9818 ± 0.008. For GAGAGTAGAG, the switch fluorescence ratio was 0.992 ± 0.034. GAGAGTATAT was tested, and the switch fluorescence ratio was 1.01 ± 0.012. Work on GAGAGTGACT yielded a switch fluorescence ratio of 0.969 ± 0.0083. With GAGAGTGGGC the switch fluorescence ratio was 1 ± 0.043. GAGAGTGGTT gave a switch fluorescence ratio of 0.998 ± 0.012. GAGAGTTAAG showed a switch fluorescence ratio of 0.9677 ± 0.0074. Work on GAGATAGAGG yielded a switch fluorescence ratio of 1.006 ± 0.0087. GAGATAGGGG showed a switch fluorescence ratio of 0.994 ± 0.016. Sequence GAGATAGGGT has a switch fluorescence ratio of 1.03 ± 0.013. GAGATCCATG was tested, and the switch fluorescence ratio was 1.01 ± 0.038. In the case of GAGATCGGGG, the switch fluorescence ratio is reported as 1 ± 0.03. GAGATCGTAT gave a switch fluorescence ratio of 0.991 ± 0.017. In the case of GAGATCGTGC, the switch fluorescence ratio is reported as 0.96 ± 0.018. GAGATGGAAG showed a switch fluorescence ratio of 0.993 ± 0.018. GAGATGGGCA gave a switch fluorescence ratio of 1.01 ± 0.06. For GAGATGGTTT, the switch fluorescence ratio was 0.997 ± 0.024. GAGATGTTTA showed a switch fluorescence ratio of 0.987 ± 0.029. GAGATTAATT showed a switch fluorescence ratio of 0.967 ± 0.016. GAGATTCGCC gave a switch fluorescence ratio of 1.02 ± 0.054. In the case of GAGATTGCAG, the switch fluorescence ratio is reported as 0.974 ± 0.069. GAGATTGCGC gave a switch fluorescence ratio of 1.02 ± 0.046. With GAGATTGGAG the switch fluorescence ratio was 0.9892 ± 0.0044. GAGCAGGGGG was tested, and the switch fluorescence ratio was 1.01 ± 0.042. GAGCATAGTT showed a switch fluorescence ratio of 1.03 ± 0.014.
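Also: ATP exposure 15 min at 22 °C before imaging.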
